Here are results for 1 substance from PMC2253636.

The assay addresses IEk on the surface of CH27 murine B-cell lymphoma cells (mouse (endogenous in CH27)). The assay can be described thus: flow cytometry on cells; CH27 cells incubated with 1 mM biotinylated peptide for 20 h at 37 °C, washed, stained with streptavidin-Cy5; occupancy of IEk calculated against cells stained with 14-4-4s-bio and streptavidin-Cy5.

As for “biotinylated ER60 peptide (from UniProt P27773 448-461)”, the percent of IEk molecules occupied was 17%.
